Paper PMC7305465, “A Cardiac Troponin T Biosensor Based on Aptamer Self-assembling on Gold”

Target: cardiac troponin T (TnT) (human, UniProt P45379 2-298)
Assay: electrochemical aptasensor (DPV, ferro/ferricyanide); 0.05-5 ng/mL TnT; LOD 0.01 ng/mL; aptamer on gold; TnT binding at 37 C, ~30 min, working pH 7.4; aptamer immobilized from 10 mM phosphate, 5 mM NaCl, 2 mM KCl, 1 mM MgCl2, pH 7.4; DPV in 20 mM Tris-HCl, 0.5 M KCl, 0.5 M ferro/ferricyanide
Settings: protein: commercial

CGTGCAGTACGCCAACCTTTCTCATGCGCTGCCCCTCTTA (structured_DNA, 5'-SH-(CH2)6 thiol) [TnT aptamer]
binding result: binds
